# Data as given in article PMC7367873, “Dissecting the sequence determinants for dephosphorylation by the catalytic subunits of phosphatases PP1 and PP2A” (Nature Communications, 2020).
# B1: CD55 (protein, UniProt P08174 35-353, looked up)
# Complement decay-accelerating …: DCGLPPDVPNAQPALEGRTSFPEDTVITYKCEESFVKIPGEKDSVICLKGSQWSDIEEFCNRSCEVPTRLNSASLKQPYITQNYFPVGTVVEYECRPGYRREPSLSPKLTCLQNLKWSTAVEFCKKKSCPNPGEIRNGQIDVPGGILFGATISFSCNTGYKLFGSTSSFCLISGSSVQWSDPLPECREIYCPAPPQIDNGIIQGERDHYGYRQSVTYACNKGFTMIGEHSIYCTVNNDEGEWSGPPPECRGKSLTSKVPPTVQKPTTVNVPTTEVSPTSQKTTTKTTTPNAQATRSTPVSRTTKHFHETTPNKGSGTTS
# B2: PKP3 (protein, UniProt Q9Y446 1-797, looked up)
# Plakophilin-3: MQDGNFLLSALQPEAGVCSLALPSDLQLDRRGAEGPEAERLRAARVQEQVRARLLQLGQQPRHNGAAEPEPEAETARGTSRGQYHTLQAGFSSRSQGLSGDKTSGFRPIAKPAYSPASWSSRSAVDLSCSRRLSSAHNGGSAFGAAGYGGAQPTPPMPTRPVSFHERGGVGSRADYDTLSLRSLRLGPGGLDDRYSLVSEQLEPAATSTYRAFAYERQASSSSSRAGGLDWPEATEVSPSRTIRAPAVRTLQRFQSSHRSRGVGGAVPGAVLEPVARAPSVRSLSLSLADSGHLPDVHGFNSYGSHRTLQRLSSGFDDIDLPSAVKYLMASDPNLQVLGAAYIQHKCYSDAAAKKQARSLQAVPRLVKLFNHANQEVQRHATGAMRNLIYDNADNKLALVEENGIFELLRTLREQDDELRKNVTGILWNLSSSDHLKDRLARDTLEQLTDLVLSPLSGAGGPPLIQQNASEAEIFYNATGFLRNLSSASQATRQKMRECHGLVDALVTSINHALDAGKCEDKSVENAVCVLRNLSYRLYDEMPPSALQRLEGRGRRDLAGAPPGEVVGCFTPQSRRLRELPLAADALTFAEVSKDPKGLEWLWSPQIVGLYNRLLQRCELNRHTTEAAAGALQNITAGDRRWAGVLSRLALEQERILNPLLDRVRTADHHQLRSLTGLIRNLSRNARNKDEMSTKVVSHLIEKLPGSVGEKSPPAEVLVNIIAVLNNLVVASPIAARDLLYFDGLRKLIFIKKKRDSPDSEKSSRAASSLLANLWQYNKLHRDFRAKGYRKEDFLGP
# B3: CEP131 (protein, UniProt Q9UPN4 1-1083, looked up)
# Centrosomal protein of 131 kDa: MKGTRAIGSVPERSPAGVDLSLTGLPPPVSRRPGSAATTKPIVRSVSVVTGSEQKRKVLEATGPGGSQAINNLRRSNSTTQVSQPRSGSPRPTEPTDFLMLFEGSPSGKKRPASLSTAPSEKGATWNVLDDQPRGFTLPSNARSSSALDSPAGPRRKECTVALAPNFTANNRSNKGAVGNCVTTMVHNRYTPSERAPPLKSSNQTAPSLNNIIKAATCEGSESSGFGKLPKNVSSATHSARNNTGGSTGLPRRKEVTEEEAERFIHQVNQATVTIQRWYRHQVQRRGAGAARLEHLLQAKREEQRQRSGEGTLLDLHQQKEAARRKAREEKARQARRAAIQELQQKRALRAQKASTAERGPPENPRETRVPGMRQPAQELSPTPGGTAHQALKANNTGGGLPAAGPGDRCLPTSDSSPEPQQPPEDRTQDVLAQDAAGDNLEMMAPSRGSAKSRGPLEELLHTLQLLEKEPDVLPRPRTHHRGRYAWASEVTTEDDASSLTADNLEKFGKLSAFPEPPEDGTLLSEAKLQSIMSFLDEMEKSGQDQLDSQQEGWVPEAGPGPLELGSEVSTSVMRLKLEVEEKKQAMLLLQRALAQQRDLTARRVKETEKALSRQLQRQREHYEATIQRHLAFIDQLIEDKKVLSEKCEAVVAELKQEDQRCTERVAQAQAQHELEIKKLKELMSATEKARREKWISEKTKKIKEVTVRGLEPEIQKLIARHKQEVRRLKSLHEAELLQSDERASQRCLRQAEELREQLEREKEALGQQERERARQRFQQHLEQEQWALQQQRQRLYSEVAEERERLGQQAARQRAELEELRQQLEESSSALTRALRAEFEKGREEQERRHQMELNTLKQQLELERQAWEAGRTRKEEAWLLNREQELREEIRKGRDKEIELVIHRLEADMALAKEESEKAAESRIKRLRDKYEAELSELEQSERKLQERCSELKGQLGEAEGENLRLQGLVRQKERALEDAQAVNEQLSSERSNLAQVIRQEFEDRLAASEEETRQAKAELATLQARQQLELEEVHRRVKTALARKEEAVSSLRTQHEAAVKRADHLEELLEQHRRPTPSTK
# B4: GNL3 (protein, UniProt Q9BVP2 1-549, looked up)
# Guanine nucleotide-binding …: MKRPKLKKASKRMTCHKRYKIQKKVREHHRKLRKEAKKRGHKKPRKDPGVPNSAPFKEALLREAELRKQRLEELKQQQKLDRQKELEKKRKLETNPDIKPSNVEPMEKEFGLCKTENKAKSGKQNSKKLYCQELKKVIEASDVVLEVLDARDPLGCRCPQVEEAIVQSGQKKLVLILNKSDLVPKENLESWLNYLKKELPTVVFRASTKPKDKGKITKRVKAKKNAAPFRSEVCFGKEGLWKLLGGFQETCSKAIRVGVIGFPNVGKSSIINSLKQEQMCNVGVSMGLTRSMQVVPLDKQITIIDSPSFIVSPLNSSSALALRSPASIEVVKPMEAASAILSQADARQVVLKYTVPGYRNSLEFFTVLAQRRGMHQKGGIPNVEGAAKLLWSEWTGASLAYYCHPPTSWTPPPYFNESIVVDMKSGFNLEELEKNNAQSIRAIKGPHLANSILFQSSGLTNGIIEEKDIHEELPKRKERKQEEREDDKDSDQETVDEEVDENSSGMFAAEETGEALSEETTAGEQSTRSFILDKIIEEDDAYDFSTDYV
# B5: ATP2A2 (protein, UniProt P16615 1-1042, looked up)
# Sarcoplasmic/endoplasmic …: MENAHTKTVEEVLGHFGVNESTGLSLEQVKKLKERWGSNELPAEEGKTLLELVIEQFEDLLVRILLLAACISFVLAWFEEGEETITAFVEPFVILLILVANAIVGVWQERNAENAIEALKEYEPEMGKVYRQDRKSVQRIKAKDIVPGDIVEIAVGDKVPADIRLTSIKSTTLRVDQSILTGESVSVIKHTDPVPDPRAVNQDKKNMLFSGTNIAAGKAMGVVVATGVNTEIGKIRDEMVATEQERTPLQQKLDEFGEQLSKVISLICIAVWIINIGHFNDPVHGGSWIRGAIYYFKIAVALAVAAIPEGLPAVITTCLALGTRRMAKKNAIVRSLPSVETLGCTSVICSDKTGTLTTNQMSVCRMFILDRVEGDTCSLNEFTITGSTYAPIGEVHKDDKPVNCHQYDGLVELATICALCNDSALDYNEAKGVYEKVGEATETALTCLVEKMNVFDTELKGLSKIERANACNSVIKQLMKKEFTLEFSRDRKSMSVYCTPNKPSRTSMSKMFVKGAPEGVIDRCTHIRVGSTKVPMTSGVKQKIMSVIREWGSGSDTLRCLALATHDNPLRREEMHLEDSANFIKYETNLTFVGCVGMLDPPRIEVASSVKLCRQAGIRVIMITGDNKGTAVAICRRIGIFGQDEDVTSKAFTGREFDELNPSAQRDACLNARCFARVEPSHKSKIVEFLQSFDEITAMTGDGVNDAPALKKAEIGIAMGSGTAVAKTASEMVLADDNFSTIVAAVEEGRAIYNNMKQFIRYLISSNVGEVVCIFLTAALGFPEALIPVQLLWVNLVTDGLPATALGFNPPDLDIMNKPPRNPKEPLISGWLFFRYLAIGCYVGAATVGAAAWWFIAADGGPRVSFYQLSHFLQCKEDNPDFEGVDCAIFESPYPMTMALSVLVTIEMCNALNSLSENQSLLRMPPWENIWLVGSICLSMSLHFLILYVEPLPLIFQITPLNVTQWLMVLKISLPVILMDETLKFVARNYLEPGKECVQPATKSCSFSACTDGISWPFVLLIMPLVIWVYSTDTNFSDMFWS
# Key:
# [1] = test system: GFP-14-3-3β and its binding proteins; assay: GFP-14-3-3β co-IP with LC-MS/MS label-free quantification, untreated versus PP1c-treated; parameters: species or system human; conditions: label-free quantification
# Protocol: (§1) HeLa Kyoto cells expressing transiently transfected pEGFP(C1)-14-3-3β or pEGFP(C1) control plasmid, were incubated with 20 nM Calyculin A (# 9902 S, Cell Signaling Technology) for 12 min. Cells were washed twice on ice with cold PBS and after addition of 500 µL lysis buffer (100 mM NaCl, 10 mM Tris, 0.1% IGEPAL, 1 mM EDTA, 1 mM EGTA, 20 nM Calyculin A, 1x cOmplete Mini protease inhibitor cocktail (Sigma), 1 mM DTT, 1 mM MnCl2) cells were scraped from plates, lysed by 10 pushes through an injection needle (21 G, BD) and the insoluble fraction was pelleted by centrifugation (10 min, 10^4 rcf, 4 °C). Supernatants were then subjected to incubation with 1 µM recombinant phosphatase or buffer for 1 h at 30 °C. Next, we subjected samples to immunoprecipitation using α-GFP nanobodies covalently coupled to agarose beads (2 h, 4 °C, obtained from the EMBL PEPcore Core Facility). Beads were then washed three times with lysis buffer and samples were eluted in 1x LDS sample buffer (Thermo Fisher Scientific) by heating to 70 °C for 10 min.
# (§2) The samples were then reduced with 25 mM dithiothreitol (10 min at 70 °C) and alkylated with 55 mM chloroacetamide (room temperature, 30 min, in the dark). Proteins were run on a precast 4–12% NuPAGE gel (ThermoFisher Scientific) for about 1 cm to concentrate the sample prior to in-gel tryptic digestion, which was performed according to the standard procedures. The peptides obtained were dried to completeness and resuspended in 12 µL of buffer A (0.1% FA), and 5 µL of sample were injected per MS measurement. The experiment was carried out in three independent replicates.
# (§3) The samples were analyzed by LC-MS/MS on a Dionex Ultimate 3000 nano-HPLC coupled online to a Fusion Lumos Tribrid mass spectrometer (Thermo Fisher Scientific). Peptides were delivered to a trap column (75 µm × 2 cm, packed in-house with 5 µm C18 resin; Reprosil PUR AQ, Dr. Maisch) and washed using 0.1% FA at a flow rate of 5 µL/min for 10 min. Subsequently, peptides were transferred to an analytical column (75 µm × 45 cm, packed in-house with 3 µm C18 resin; Reprosil Gold) applying a flow rate of 300 nL/min and separated using a 60 min linear gradient from 4% to 32% LC solvent B (0.1% FA, 5% DMSO in ACN) in LC solvent A (0.1% FA in 5% DMSO). The eluate from the analytical column was sprayed via a stainless steel emitter (Thermo Fisher Scientific) at a source voltage of 2.1 kV into the mass spectrometer. The transfer capillary was heated to 275 °C. The Fusion Lumos was operated in positive ionization mode and data-dependent acquisition (DDA), automatically switching between MS1 and MS2 spectrum acquisition. Full scan MS1 spectra were recorded in the Orbitrap from 360 to 1300 m/z at a resolution of 60k (automatic gain control (AGC) target value of 4e5 charges, maximum injection time (maxIT) of 50 ms). Up to 20 peptide precursors were isolated (isolation window, 1.7 m/z; maximum injection time, 25 ms; and AGC value, 1e5), fragmented by high-energy collision-induced dissociation (HCD) using 30% normalized collision energy (NCE), and analyzed at a resolution of 15k in the Orbitrap. Precursor ions that were singly charged, unassigned, or with charge states >6+ were excluded. The dynamic exclusion duration of fragmented precursor ions was 20 s.
# (§4) Peptide and protein identification and LFQ were performed using MaxQuant software (version 1.6.1.0)[64] by searching the data against all canonical protein sequences as annotated in the Swissprot reference database (human proteins only, 20193 entries, downloaded 22 March 2016, internally annotated with PFAM domains) using the embedded search engine Andromeda[65]. The MaxQuant search was performed using two variable modifications; oxidation of methionine and N-terminal protein acetylation. Carbamidomethylation on cysteines was specified as a fixed modification. Trypsin (Trypsin/P) was specified as the proteolytic enzyme with up to two allowed missed cleavage sites.
# [2] = test system: GFP-14-3-3β; assay: GFP-14-3-3β co-IP with LC-MS/MS, untreated GFP-14-3-3β versus GFP control (14-3-3 interactome); assay type: binding, human; conditions: label-free quantification
# Protocol: as §1, §2, §3, §4
Molecule,"Difference (log2), PP1 vs untreated ([1]; PP1 vs untreated)","Difference (log2), untreated vs GFP ([2]; untreated vs GFP)","Difference (log2), PP1 vs untreated ([1]; log2 difference, pairwise comparison PP1 vs untreated, 3 replicates each)","Difference (log2), untreated vs GFP ([2]; log2 difference, pairwise comparison untreated vs GFP, 3 replicates each)"
B1,1.129 log2,-1.764 log2,,
B2,,,2.782,-1.082
B3,1.183 log2,0.2298 log2,,
B4,1.1838 log2,2.229 log2,,
B5,1.1435 log2,-0.4794 log2,,
